Measured values taken from patent publication US20250002577A1 (ONCORESPONSE, published 2025).
Positions count from the first letter of the chain named.

B1: B21A1 (antibody, human IgG1, kappa)
heavy: not shown
light: DIVMTQTPASVEAAVGGTVTINCQASGNIYSFLAWYQQKPGQPPKLLIYTASNLETGVPSRFSGSGSGTEYTLTISGVQCDDAATYYCLGGLYSSDVSYAFGGGTEVVVKRTVAAPSVFIFPPSDEQLKSGTASVVCLLNNFYPREAKVQWKVDNALQSGNSQESVTEQDSKDSTYSLSSTLTLSKADYEKHKVYACEVTHQGLSSPVTKSFNRGEC
notes: Rabbit/human chimera, human IgG1/kappa; AF647-conjugated in the flow cytometry titrations; also called B21A1 chimera IgG1; parent B21A1
B2: B21H1-15 (antibody, human IgG1, kappa)
heavy: not shown
light: B1 light with V3Q, A9S, S10T, A14S, N22T, V78L, C80S
notes: humanized IgG1/kappa, VH1+VL5
B3: B21H1-33 (antibody, human IgG1, kappa)
heavy: not shown
light: DIVMTQSPSSVSASVGDRVTITCQASGNIYSFLAWYQQKPGKAPKLLIYTASNLETGVPSRFSGSGSGTDFTLTISSLQPEDFATYYCLGGLYSSDVSYAFGGGTKVVIKRTVAAPSVFIFPPSDEQLKSGTASVVCLLNNFYPREAKVQWKVDNALQSGNSQESVTEQDSKDSTYSLSSTLTLSKADYEKHKVYACEVTHQGLSSPVTKSFNRGEC
notes: humanized IgG1/kappa, VH3+VL3
B4: B21H1-12 (antibody, human IgG1, kappa)
heavy: not shown
light: B3 light with V3Q, V11L, A43V, F71Y, P80S, F83A
notes: humanized IgG1/kappa, VH1+VL2

Target: T1, human LILRB1 on cells (human, UniProt Q8NHL6 24-650)
T1 construct: whole, on cells; also called hLILRB1; LILRB1-expressing 721.221 cells
Experiment: flow cytometry, HEK293-6E transfectants
Description: (§1) To determine that the parent chimera anti LILRB2/1 antibody specifically binds to LILRB2 and LILRB1 and not to other LILRB and LILRA family members, a cross-reactivity assay was performed. Cross-reactivity was assessed by antibody binding to transiently transfected HEK293-6E cells by flow cytometry. Binding was evaluated to HEK293-6E cells transiently transfected with human LILRB-1, -2, -3, -4, and 5 plasmids (Origene, Nos. RC219949, RC217935, RC211228, RC220932, RC206516) or to cells transiently transfected with human LILRA-1, -2, -4, -5, and -6 plasmids (Origene, Nos. RC210808, RC205626, RC220452, RC212310 RC212965). […] At a concentration of 1 μg/mL, no binding of B21A1 or the humanized variants to LILRB-3, -4, or -5 was observed (Table 7). Additionally, no binding to LILRA-1, -2, -4, -5, or -6 was observed, confirming the specificity of B21A1 and its humanized variants to LILRB1 and LILRB2 (Table 8).

MFI [MFI]	Binder
940	B1
1140	B2
860	B3
963	B4

Target: T2, human LILRB3 on HEK293-6E cells (human, UniProt O75022 24-631)
T2 construct: whole, on cells; also called hLILRB3
T2 sequence (O75022 24-631): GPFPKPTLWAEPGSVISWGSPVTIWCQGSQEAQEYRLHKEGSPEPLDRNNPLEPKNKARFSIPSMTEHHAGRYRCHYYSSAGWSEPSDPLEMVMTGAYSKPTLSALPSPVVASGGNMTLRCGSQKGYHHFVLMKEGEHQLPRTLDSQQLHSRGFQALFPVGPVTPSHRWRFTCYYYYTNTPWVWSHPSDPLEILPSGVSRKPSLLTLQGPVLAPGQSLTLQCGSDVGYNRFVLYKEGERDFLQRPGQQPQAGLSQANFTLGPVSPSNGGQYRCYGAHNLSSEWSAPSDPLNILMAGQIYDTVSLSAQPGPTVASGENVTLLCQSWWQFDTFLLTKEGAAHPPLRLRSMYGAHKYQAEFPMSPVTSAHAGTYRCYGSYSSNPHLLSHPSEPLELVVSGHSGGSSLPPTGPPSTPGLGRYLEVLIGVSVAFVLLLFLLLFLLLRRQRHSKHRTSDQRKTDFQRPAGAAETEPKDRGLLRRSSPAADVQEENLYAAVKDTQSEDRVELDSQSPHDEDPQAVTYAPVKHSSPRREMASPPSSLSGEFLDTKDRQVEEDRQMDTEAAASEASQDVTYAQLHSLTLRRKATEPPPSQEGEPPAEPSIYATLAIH
Experiment: flow cytometry, HEK293-6E transfectants
Description: as §1

MFI [MFI]	binding result	Binder
107	no binding (tested: 1 µg/mL)	B1
98.7	no binding (tested: 1 µg/mL)	B2
89.2	no binding (tested: 1 µg/mL)	B3
82.2	no binding (tested: 1 µg/mL)	B4

Target: T3, human LILRB5 on HEK293-6E cells (human, UniProt O75023 24-590)
T3 construct: whole, on cells; also called hLILRB5
T3 sequence (O75023 24-590): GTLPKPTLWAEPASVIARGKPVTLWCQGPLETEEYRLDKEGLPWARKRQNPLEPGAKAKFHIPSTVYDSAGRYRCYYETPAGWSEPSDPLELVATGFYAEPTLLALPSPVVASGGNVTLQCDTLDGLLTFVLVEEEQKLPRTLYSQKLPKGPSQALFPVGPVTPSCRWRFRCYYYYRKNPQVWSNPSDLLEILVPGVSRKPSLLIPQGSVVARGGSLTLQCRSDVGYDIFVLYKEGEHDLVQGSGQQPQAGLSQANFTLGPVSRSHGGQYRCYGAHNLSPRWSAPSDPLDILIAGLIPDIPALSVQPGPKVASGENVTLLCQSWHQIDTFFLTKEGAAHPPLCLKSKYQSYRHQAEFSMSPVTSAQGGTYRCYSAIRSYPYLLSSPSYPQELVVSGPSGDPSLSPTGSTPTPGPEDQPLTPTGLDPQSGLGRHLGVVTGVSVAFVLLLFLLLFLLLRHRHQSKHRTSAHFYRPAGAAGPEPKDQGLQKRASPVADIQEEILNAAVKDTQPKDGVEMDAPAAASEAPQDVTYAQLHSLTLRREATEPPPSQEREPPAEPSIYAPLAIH
Experiment: flow cytometry, HEK293-6E transfectants
Description: as §1

MFI [MFI]	binding result	Binder
101	no binding (tested: 1 µg/mL)	B1
93.8	no binding (tested: 1 µg/mL)	B2
85.8	no binding (tested: 1 µg/mL)	B3
87.8	no binding (tested: 1 µg/mL)	B4

Target: T4, human LILRA6 on HEK293-6E cells (human, UniProt Q6PI73 24-481)
T4 construct: whole, on cells; also called hLILRA6
T4 sequence (Q6PI73 24-481): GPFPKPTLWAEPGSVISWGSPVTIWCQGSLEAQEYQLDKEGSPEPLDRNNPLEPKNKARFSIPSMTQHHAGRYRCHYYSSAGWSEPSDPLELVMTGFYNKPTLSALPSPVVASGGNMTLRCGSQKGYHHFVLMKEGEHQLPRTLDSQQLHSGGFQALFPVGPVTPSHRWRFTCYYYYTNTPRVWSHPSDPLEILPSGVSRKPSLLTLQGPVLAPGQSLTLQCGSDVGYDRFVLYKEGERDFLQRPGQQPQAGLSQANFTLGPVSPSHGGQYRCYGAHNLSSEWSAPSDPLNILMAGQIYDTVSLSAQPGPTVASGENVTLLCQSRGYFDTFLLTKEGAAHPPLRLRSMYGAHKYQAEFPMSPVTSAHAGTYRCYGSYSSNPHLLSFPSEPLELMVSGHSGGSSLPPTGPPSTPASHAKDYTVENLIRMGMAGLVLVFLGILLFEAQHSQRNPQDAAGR
Experiment: flow cytometry, HEK293-6E transfectants
Description: as §1

MFI [MFI]	binding result	Binder
150	no binding (tested: 1 µg/mL)	B1
147	no binding (tested: 1 µg/mL)	B2
140	no binding (tested: 1 µg/mL)	B3
151	no binding (tested: 1 µg/mL)	B4

Target: T5, human LILRB4 on HEK293-6E cells (human, UniProt Q8NHJ6 22-448)
T5 construct: whole, on cells; also called hLILRB4
Experiment: flow cytometry, HEK293-6E transfectants
Description: as §1

MFI [MFI]	binding result	Binder
35.2	no binding (tested: 1 µg/mL)	B1
29.9	no binding (tested: 1 µg/mL)	B2
27.4	no binding (tested: 1 µg/mL)	B3
27.3	no binding (tested: 1 µg/mL)	B4

Target: T6, human LILRA5 on HEK293-6E cells (human, UniProt A6NI73 42-299)
T6 construct: whole, on cells; also called hLILRA5
T6 sequence (A6NI73 42-299): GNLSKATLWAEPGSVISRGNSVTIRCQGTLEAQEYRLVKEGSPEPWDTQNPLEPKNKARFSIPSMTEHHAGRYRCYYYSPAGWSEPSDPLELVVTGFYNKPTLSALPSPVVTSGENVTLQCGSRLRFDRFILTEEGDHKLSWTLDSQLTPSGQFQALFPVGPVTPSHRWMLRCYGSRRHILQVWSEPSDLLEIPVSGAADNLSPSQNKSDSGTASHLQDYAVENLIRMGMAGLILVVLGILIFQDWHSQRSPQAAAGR
Experiment: flow cytometry, HEK293-6E transfectants
Description: as §1

MFI [MFI]	binding result	Binder
78.5	no binding (tested: 1 µg/mL)	B1
77.8	no binding (tested: 1 µg/mL)	B2
73.1	no binding (tested: 1 µg/mL)	B3
72.8	no binding (tested: 1 µg/mL)	B4

Target: T7, human LILRA4 on HEK293-6E cells (human, UniProt P59901 24-499)
T7 construct: whole, on cells; also called hLILRA4
T7 sequence (P59901 24-499): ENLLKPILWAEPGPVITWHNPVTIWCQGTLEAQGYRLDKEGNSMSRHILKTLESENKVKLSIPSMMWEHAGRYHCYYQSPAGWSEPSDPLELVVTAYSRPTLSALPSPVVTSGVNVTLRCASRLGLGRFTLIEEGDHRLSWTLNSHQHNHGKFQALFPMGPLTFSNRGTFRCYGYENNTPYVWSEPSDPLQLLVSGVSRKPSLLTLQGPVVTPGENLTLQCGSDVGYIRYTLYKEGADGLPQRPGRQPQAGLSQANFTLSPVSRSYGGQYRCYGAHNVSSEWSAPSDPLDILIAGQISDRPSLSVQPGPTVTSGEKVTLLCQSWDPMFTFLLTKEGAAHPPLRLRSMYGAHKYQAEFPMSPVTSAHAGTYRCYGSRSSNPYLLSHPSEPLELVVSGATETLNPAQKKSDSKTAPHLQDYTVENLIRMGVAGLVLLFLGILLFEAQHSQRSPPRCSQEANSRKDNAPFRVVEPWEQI
Experiment: flow cytometry, HEK293-6E transfectants
Description: as §1

MFI [MFI]	binding result	Binder
143	no binding (tested: 1 µg/mL)	B1
136	no binding (tested: 1 µg/mL)	B2
112	no binding (tested: 1 µg/mL)	B3
112	no binding (tested: 1 µg/mL)	B4

Target: T8, human LILRA2 on HEK293-6E cells (human, UniProt Q8N149 24-483)
T8 construct: whole, on cells; also called hLILRA2
T8 sequence (Q8N149 24-483): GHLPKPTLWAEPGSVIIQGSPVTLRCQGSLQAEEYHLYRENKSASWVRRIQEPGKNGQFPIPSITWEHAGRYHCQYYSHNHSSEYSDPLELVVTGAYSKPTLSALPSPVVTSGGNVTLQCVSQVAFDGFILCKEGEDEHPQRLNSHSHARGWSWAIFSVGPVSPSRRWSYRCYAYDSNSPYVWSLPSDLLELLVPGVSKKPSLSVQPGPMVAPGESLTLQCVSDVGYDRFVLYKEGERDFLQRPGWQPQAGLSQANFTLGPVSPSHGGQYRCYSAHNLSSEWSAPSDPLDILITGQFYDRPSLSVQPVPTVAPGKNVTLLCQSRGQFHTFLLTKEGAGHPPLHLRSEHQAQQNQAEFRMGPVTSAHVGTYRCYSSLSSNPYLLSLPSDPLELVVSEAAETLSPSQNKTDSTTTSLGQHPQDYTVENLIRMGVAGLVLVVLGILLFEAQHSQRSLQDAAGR
Experiment: flow cytometry, HEK293-6E transfectants
Description: as §1

MFI [MFI]	binding result	Binder
30.2	no binding (tested: 1 µg/mL)	B1
28.9	no binding (tested: 1 µg/mL)	B2
25.9	no binding (tested: 1 µg/mL)	B3
26.6	no binding (tested: 1 µg/mL)	B4

Target: T9, human LILRA1 on HEK293-6E cells (human, UniProt O75019 17-489)
T9 construct: whole, on cells; also called hLILRA1
T9 sequence (O75019 17-489): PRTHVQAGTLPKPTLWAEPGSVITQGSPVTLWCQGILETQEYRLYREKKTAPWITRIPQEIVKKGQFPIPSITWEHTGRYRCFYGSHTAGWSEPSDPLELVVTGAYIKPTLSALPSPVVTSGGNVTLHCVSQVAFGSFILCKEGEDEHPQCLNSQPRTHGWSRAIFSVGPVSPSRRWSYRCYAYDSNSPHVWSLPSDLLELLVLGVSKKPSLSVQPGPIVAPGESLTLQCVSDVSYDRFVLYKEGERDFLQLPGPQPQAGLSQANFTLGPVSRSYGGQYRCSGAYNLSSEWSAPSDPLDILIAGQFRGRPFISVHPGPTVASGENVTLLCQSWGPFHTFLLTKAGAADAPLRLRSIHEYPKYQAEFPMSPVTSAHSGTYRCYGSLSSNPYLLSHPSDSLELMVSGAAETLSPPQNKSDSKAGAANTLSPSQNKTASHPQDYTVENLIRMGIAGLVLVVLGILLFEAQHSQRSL
Experiment: flow cytometry, HEK293-6E transfectants
Description: as §1

MFI [MFI]	binding result	Binder
264	no binding (tested: 1 µg/mL)	B1
290	no binding (tested: 1 µg/mL)	B2
204	no binding (tested: 1 µg/mL)	B3
276	no binding (tested: 1 µg/mL)	B4

Target: T10, human LILRB2 on cells (human, UniProt Q8N423 22-597)
T10 construct: whole, on cells; also called hLILRB2; LILRB2-HEK293T
T10 sequence (Q8N423 22-597): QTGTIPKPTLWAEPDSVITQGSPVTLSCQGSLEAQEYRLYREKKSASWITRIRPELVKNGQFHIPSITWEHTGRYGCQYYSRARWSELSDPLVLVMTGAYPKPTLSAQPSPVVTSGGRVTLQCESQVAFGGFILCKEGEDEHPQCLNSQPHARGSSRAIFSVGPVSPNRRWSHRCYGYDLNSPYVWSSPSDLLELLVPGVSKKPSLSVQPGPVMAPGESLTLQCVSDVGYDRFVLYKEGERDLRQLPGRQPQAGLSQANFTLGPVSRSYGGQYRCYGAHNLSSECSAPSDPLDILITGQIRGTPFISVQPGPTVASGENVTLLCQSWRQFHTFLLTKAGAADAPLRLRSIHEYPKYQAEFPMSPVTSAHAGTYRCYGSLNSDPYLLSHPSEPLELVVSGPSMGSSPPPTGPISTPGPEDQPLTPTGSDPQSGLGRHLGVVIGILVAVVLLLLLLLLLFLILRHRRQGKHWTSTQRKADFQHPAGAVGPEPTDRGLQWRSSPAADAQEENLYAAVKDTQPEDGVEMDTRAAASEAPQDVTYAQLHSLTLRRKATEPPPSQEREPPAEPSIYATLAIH
Experiment: flow cytometry, HEK293-6E transfectants
Description: as §1

MFI [MFI]	Binder
5380	B1
5700	B2
6290	B3
6210	B4

Target: T1, human LILRB1 on cells
Experiment: flow cytometry, 721.221 cells, AF647-labelled antibody
Description: (§2) While LILRB2 expression is mostly restricted to myeloid cells, LILRB1 has a broader expression on immune cell subsets, including B cells, T cells and NK cells.
(§3) Frozen cells were removed from storage in vapor phase liquid nitrogen and thawed by gentle swirling in a water bath at 37° C., then resuspended in DMEM media with 10% FBS. Cells were placed in a 15 mL conical tube and centrifuged at 300×g for 5 min, then supernatant was removed. Cells were resuspended in DMEM+10% FBS at a cell density of 2×10⁵ cells/mL in a T75 flask for culturing, and incubated at 37° C., 5% CO₂ for 3 days before passaging. Cells were passaged when the cell density reached 1×10⁶ cell/mL. On the day of the assay, cells were centrifuged, then supernatant was removed. Cells were resuspended in Blocking Buffer B (FACS Buffer containing 10% FBS and 0.5 mg/mL human IgG1 (Athens Research, No. 16-16-090707-1M)+0.05% NaN₃, 5% (w/v)) in a 15 mL conical tube, then incubated at 4° C. for 30 min. […] Cells were incubated with antibodies at 4° C. for 1 h. Cells were washed twice in FACS Buffer (PBS containing 2 mM EDTA+1% FBS+0.05% NaN₃) and then stained with for 10 min with Zombie Violet™ fixable viability dye (BioLegend, No. 423114) at RT, washed with FACS Buffer and resuspend in 75 μL of FACS Buffer for acquisition on a BD FACSymphony™ or BD FACSCanto™ II flow cytometer (BD Biosciences), as described in Example 6.

EC50 [µg/mL]	Binder
0.0448	B1
0.0417	B4

Target: T10, human LILRB2 on cells
Experiment: flow cytometry, LILRB2-HEK293T cells, AF647-labelled antibody
Description: as §2, §3

EC50 [µg/mL]	Binder
0.0008	B1
0.00096	B2
0.00144	B3
0.00102	B4

Target: T11, recombinant human LILRB1-His (human, UniProt Q8NHL6 24-458)
T11 construct: Bought protein; also called LILRB1 protein
T11 sequence (Q8NHL6 24-458 limits assumed): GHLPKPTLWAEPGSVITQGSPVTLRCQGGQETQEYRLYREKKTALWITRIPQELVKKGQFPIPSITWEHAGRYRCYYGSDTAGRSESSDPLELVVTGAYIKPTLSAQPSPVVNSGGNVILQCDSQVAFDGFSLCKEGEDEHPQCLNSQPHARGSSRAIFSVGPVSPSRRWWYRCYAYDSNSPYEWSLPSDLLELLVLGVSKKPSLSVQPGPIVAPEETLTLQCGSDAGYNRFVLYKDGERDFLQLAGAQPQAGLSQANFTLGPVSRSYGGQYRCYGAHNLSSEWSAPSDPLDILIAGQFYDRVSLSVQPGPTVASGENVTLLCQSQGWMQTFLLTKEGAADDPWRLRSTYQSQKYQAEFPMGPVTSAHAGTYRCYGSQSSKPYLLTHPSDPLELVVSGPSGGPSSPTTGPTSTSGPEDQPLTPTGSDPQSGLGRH
Experiment: MSD ELISA, coated antigen, purified IgG1
Description: (§4) Recombinant human and cynomolgus LILRB1 proteins (R&D Systems, No. 8989-T2-050; ACROBiosystems, No. CDJ-C52H3) and recombinant human and cynomolgus LILRB2 proteins (ACROBiosystems, No. LI2-H5220; No. L12-C52H3) were diluted in PBS to 4 μg/mL and added to a multi-array 384-well high-binding plates (MSD, No. L21XA4) at 10 μL/well and incubated at 4° C. overnight. The plates were washed several times with Wash Buffer (0.05% Tween® 20 in PBS), using a microplate washer and then blocked with 70 μL/well of 5% BSA in PBS for 1 hour (h) at room temperature (RT) with shaking at 700 rpm. After blocking, 20 μL/well of anti-LILRB2/LILRB1 antibodies or isotype control were added to the plates, and the plates were sealed and incubated for 2 h at RT with shaking at 700 rpm. After primary antibody binding, plates were washed five times with 70 μL/well of Wash Buffer (0.05% Tween® 20 in PBS) using a microplate washer. Secondary detection antibody (SULFO-TAG™-labeled goat anti-human IgG antibody (MSD, No. R32AJ-1)) was diluted to 4 μg/mL in assay diluent (1% BSA in PBS) and 10 μL/well was added to plates and incubated at RT protected from light for 1 h, with shaking at 700 rpm. Following incubation, plates were washed five times with Wash Buffer, using a microplate washer. After removal of the final wash, 35 μL/well of MSD Gold Read Buffer B (MSD, No. R60AM-4) was added to all wells using a Multidrop combo washer/dispenser, and plates were read using MESO Sector 600MM instrument (MSD) within 5 minutes (min) after addition of Read Buffer. Signals as counts per minute (cpm) were recorded. EC₅₀ values were calculated using GraphPad Prism based on log concentration of the primary antibodies versus cpm values.

EC50 [µg/mL]	Binder
0.0105	B1
0.00563	B2
0.00616	B3
0.00614	B4

Target: T12, recombinant cynomolgus LILRB1 (cynomolgus)
T12 construct: Bought protein
Experiment: MSD ELISA, coated antigen, purified IgG1
Description: as §4

EC50 [µg/mL]	Binder
0.306	B1
5.85	B3

Target: T13, recombinant human LILRB2-His (human, UniProt Q8N423 22-461, limits assumed)
T13 construct: Bought protein; also called LILRB2 protein
T13 sequence (Q8N423 22-461 limits assumed): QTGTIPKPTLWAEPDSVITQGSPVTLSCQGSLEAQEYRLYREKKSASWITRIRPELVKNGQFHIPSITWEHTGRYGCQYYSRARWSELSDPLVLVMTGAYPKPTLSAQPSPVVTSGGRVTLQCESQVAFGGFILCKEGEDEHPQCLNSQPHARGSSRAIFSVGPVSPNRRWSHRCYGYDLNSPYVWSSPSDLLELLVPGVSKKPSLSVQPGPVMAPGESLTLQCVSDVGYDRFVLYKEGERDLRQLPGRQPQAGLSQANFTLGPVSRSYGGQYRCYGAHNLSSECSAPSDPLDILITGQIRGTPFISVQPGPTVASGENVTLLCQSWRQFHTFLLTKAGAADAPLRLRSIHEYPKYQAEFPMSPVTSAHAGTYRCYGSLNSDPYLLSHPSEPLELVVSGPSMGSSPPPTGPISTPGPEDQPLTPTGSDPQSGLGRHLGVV
Experiment: MSD ELISA, coated antigen, purified IgG1
Description: as §4

EC50 [µg/mL]	Binder
0.038	B1
0.0215	B2
0.0225	B3
0.0174	B4
